{
  "source": "patent US12305177B2",
  "about": "“Methods and platforms for sustainable high yield terpenoid production” (Purdue Research Foundation, priority 2019, dated 2025)",
  "proteins": {"B1": {"name": "A. thaliana Nudx1 (Arabidopsis thaliana) (protein)", "chain": "MSTGEAIPRVAVVVFILNGNSILLGRRRSSIGNSTFALPGGHLEFGESFEECAAREVMEETGLKIEKMKLLTVTNNVFKEAPTPSHYVSVSIRAVLVDPSQEPKNMEPEKCEGWDWYDWENLPKPLFWPLEKLFGSGFNPFTHGGGD"}, "B2": {"name": "A. thaliana Nudx3 (Arabidopsis thaliana) (protein)", "chain": "MAEEHFDVLTKSGEKTGVSKPRGEVHRDGDYHRAVHVWIFVETTQQLLLQLRSDDKDSWPGQWDISSAGHISAGDTSLLSAQRELEEELGVKLPKDAFEKIFVFLQECVTNDGKFINNEFNDVYLVTILHPIPLEAFTLQKEEVSAVKYVPYEEYRNFLSKEDPAYVPYDVNGEYGKLFDIIRQRCQVNTEARSLSLQKQLQRYSPVTLEAKLTELSEADQKALGLIVKAAKIMDDIFYEQVWNSNPALRDWLKDHANASKLDKLKWDYFTINKSPWSSLDENEAFLSTADSAVKLLPGATKAIAGWKGLEYRAAFPVTKPPGANFYPPDMDKMEFTLWLNGLTEEQKHAATGFFSVIKRRSEANLDASDHLASSTKKLPDSNSDLYSIPYSEIYRPFLKKASEFLQKAGDLVSSPSLKKLLHSKAEAFLSNEYYESDIAWMDLDSKLDITIGPYETYEDEIFGYKATFETFIGIRDDKATADLKLFGDNLKLLEDNLPLESVYKSTDVSAAPIRVIQLIYNSGDVKGPQTVAYNLPNDEKIVKDRGTSMVMLKNVQEAKFEHILKPIAEITISKEQRGLVDFDSFFTHTICHECCHGIGPHTITLPGGQTSTVRKELQEVHSAMEEAKADIVGLWALKFLITKGLLSKSMVESMYVSFLAGCFRSIRFGLTEAHGKGQALQFNYLYEKGAFVFHEDSTFSVDFAKIEGAVESLSHEILTIQGKGDKNAATLLLNKYCTITGPLKTALENLERVKVPVDISPTFPLAEALMN"}, "B3": {"name": "N. tabacum IPK (Nicotiana tabacum) (protein)", "chain": "MEQNKASAPVPPTKRVRCIVKLGGAAITCKNKLETIDEENLTEVSSQLRQALIPNSDSAKILGMDWSKRPGQSEPPSFVDEFSDQPVADSESFIVVHGAGSFGHFQASKSGVHKGGLSRPLVKAGFVATRISVTSLNLEIVRALAREGIPSIGMSPFSCGWSTCQRNMTEADISMVIKAIDAGFIPVLHGDAVLDTLQECTILSGDVIIRHLAAELKPEFVVFLTDVLGVYDRPPVEPGAVLIREIAVREDGSWSVVKPRLEDTSKPVEFTVAAHDTTGGMVTKITEAAMIAKLGIDVYITKVGAGRNGPLSESPEWNLERQHT"}},
  "key": {"[1]": {"substrate": "CC(C)=CCC/C(C)=C/CC/C(C)=C/CO[P@@](=O)(O)OP(=O)(O)O", "assay": "purified protein, by the assay type", "details": "100 mM TAPS pH 8.5, 10 mM MgCl2, 37° C., means ± SD, n = 3, pH 8.5, 37.0 °C"}, "[2]": {"substrate": "CC(C)=CCOP(=O)(O)OP(=O)(O)O", "assay": "purified protein, by the assay type", "details": "100 mM TAPS pH 8.5, 10 mM MgCl2, 37° C., means ± SD, n = 3, pH 8.5, 37.0 °C"}, "[3]": {"substrate": "C=C(C)CCOP(=O)(O)O", "assay": "purified protein, by the assay type", "details": "other: substrate of N. tabacum IPK; pH 7.5, 30° C.; pH 7.5; 30.0 °C"}, "[4]": {"substrate": "CC(C)=CCC/C(C)=C/COP(=O)(O)O", "assay": "NtIPK kinetics, lactate dehydrogenase/pyruvate kinase coupled assay", "assay_type": "biochemical", "details": "other: substrate of N. tabacum IPK, pH 7.5, 30° C."}, "[5]": {"substrate": "CC(C)=CCOP(=O)(O)O", "assay": "NtIPK kinetics, lactate dehydrogenase/pyruvate kinase coupled assay", "assay_type": "biochemical", "details": "other: substrate of N. tabacum IPK, pH 7.5, 30° C."}},
  "data": [
    {"protein": "B1", "values": [
      {"measurement": "Km", "setting": "[1]; other: substrate of AtNudx1", "value": "8.7 ± 1.6", "unit": "µM"},
      {"measurement": "kcat", "setting": "[1]; other: substrate of AtNudx1", "value": "1.35 ± 0.06", "unit": "s⁻¹"},
      {"measurement": "kcat/Km", "setting": "[1]; other: substrate of AtNudx1", "value": "1.6 × 10^5 ± 0.3 M^−1 s^−1"},
      {"measurement": "Km", "setting": "[2]; other: substrate of AtNudx1", "value": "10.7 ± 1.8", "unit": "µM"},
      {"measurement": "kcat", "setting": "[2]; other: substrate of AtNudx1", "value": "1.7 ± 0.07", "unit": "s⁻¹"},
      {"measurement": "kcat/Km", "setting": "[2]; other: substrate of AtNudx1", "value": "1.6 × 10^5 ± 0.3 M^−1 s^−1"}
    ]},
    {"protein": "B2", "values": [
      {"measurement": "Km", "setting": "[1]; other: substrate of AtNudx3", "value": "58 ± 10", "unit": "µM"},
      {"measurement": "kcat", "setting": "[1]; other: substrate of AtNudx3", "value": "3.3 ± 0.3", "unit": "s⁻¹"},
      {"measurement": "kcat/Km", "setting": "[1]; other: substrate of AtNudx3", "value": "5.7 × 10^4 ± 0.5 M^−1 s^−1"},
      {"measurement": "Km", "setting": "[2]; other: substrate of AtNudx3", "value": "44 ± 8", "unit": "µM"},
      {"measurement": "kcat", "setting": "[2]; other: substrate of AtNudx3", "value": "7.1 ± 0.3", "unit": "s⁻¹"},
      {"measurement": "kcat/Km", "setting": "[2]; other: substrate of AtNudx3", "value": "1.6 × 10^5 ± 0.3 M^−1 s^−1"}
    ]},
    {"protein": "B3", "values": [
      {"measurement": "Km", "setting": "[3]", "value": "4.0 ± 1.5", "unit": "µM"},
      {"measurement": "kcat", "setting": "[3]", "value": 0.93, "unit": "s⁻¹"},
      {"measurement": "kcat/Km", "setting": "[3]", "value": 230000, "unit": "M⁻¹ s⁻¹"},
      {"measurement": "Km", "setting": "[4]", "value": "100 ± 60", "unit": "µM"},
      {"measurement": "kcat", "setting": "[4]", "value": "0.0017 ± 0.0002", "unit": "s⁻¹"},
      {"measurement": "kcat/Km", "setting": "[4]", "value": 17, "unit": "M⁻¹ s⁻¹"},
      {"measurement": "Km", "setting": "[5]", "value": "8.5 ± 2.3", "unit": "µM"},
      {"measurement": "kcat", "setting": "[5]", "value": "1.2 ± 0.06", "unit": "s⁻¹"},
      {"measurement": "kcat/Km", "setting": "[5]", "value": 140000, "unit": "M⁻¹ s⁻¹"}
    ]}
  ]
}
